Data set [1] relates to HeLa Kyoto. The data set can be described thus: solubility in G1/S (NP-40 vs SDS abundance) (log2 ratio); higher = more soluble. The note with it: cell cycle stage: G1/S.
Data set [2] relates to HeLa Kyoto. The data set can be described thus: solubility change mitosis vs G1/S (difference of NP-40 vs SDS log2 ratios) (log2 ratio difference); higher = more soluble in mitosis.
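Wherever solubility change mitosis vs G1/S (difference of NP-40 vs SDS log2 ratios) is given: synchronized HeLa Kyoto cells (double thymidine block for G1/S, nocodazole release for mitosis), protein amounts in NP-40 versus SDS lysates quantified by mass spectrometry, three biological replicates.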
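Wherever solubility in G1/S (NP-40 vs SDS abundance) is given: HeLa Kyoto cells arrested at G1/S by double thymidine block, proteins quantified by TMT10plex mass spectrometry in mild NP-40 versus SDS extracts, three biological replicates.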

Turning to “MVYISNGQVLDSRSQSPWRLSLITDFFWGIAEFVVLFFKTLLQQDVKKRRSYGNSSDSRYDDGRGPPGNPPRRMGRINHLRGPSPPPMAGGUGR [SELK]”, the “solubility in G1/S (log2)” value in the data set on HeLa Kyoto [1] is 0.000519. In addition, the “solubility change mitosis (log2)” value with HeLa Kyoto [2] amounted to 0.31.
Take SOGA1: in the data set with HeLa Kyoto [1], the “solubility in G1/S (log2)” value was -0.0256. Also, the “solubility change mitosis (log2)” value in the data set with HeLa Kyoto [2] is 0.0556.
“MLRVVSWNINGIRRPLQGVANQEPSNCAAVAVGRILDELDADIVCLQETKVTRDALTEPLAIVEGYNSYFSFSRNRSGYSGVATFCKDNATPVAAEEGLSGLFATQNGDVGCYGNMDEFTQEELRALDSEGRALLTQHKIRTWEGKEKTLTLINVYCPHADPGRPERLVFKMRFYRLLQIRAEALLAAGSHVIILGDLNTAHRPIDHWDAVNLECFEEDPGRKWMDSLLSNLGCQSASHVGPFIDSYRCFQPKQEGAFTCWSAVTGARHLNYGSRLDYVLGDRTLVIDTFQASFLLPEVMGSDHCPVGAVLSVSSVPAKQCPPLCTRFLPEFAGTQLKILRFLVPLEQSPVLEQSTLQHNNQTRVQTCQNKAQVRSTRPQPSQVGSSRGQKNLKSYFQPSPSCPQASPDIELPSLPLMSALMTPKTPEEKAVAKVVKGQAKTSEAKDEKELRTSFWKSVLAGPLRTPLCGGHREPCVMRTVKKPGPNLGRRFYMCARPRGPPTDPSSRCNFFLWSRPS [APEX2]”: in the data set on HeLa Kyoto [1], the “solubility in G1/S (log2)” value is 0.0896. Also, the “solubility change mitosis (log2)” value in the data set on HeLa Kyoto [2] was -0.0093.
In the case of “MTSVTRSEIIDEKGPVMSKTHDHQLESSLSPVEVFAKTSASLEMNQGVSEERIHLGSSPKKGGNCDLSHQERLQSKSLHLSPQEQSASYQDRRQSWRRASMKETNRRKSLHPIHQGITELSRSISVDLAESKRLGCLLLSSFQFSIQKLEPFLRDTKGFSLESFRAKASSLSEELKHFADGLETDGTLQKCFEDSNGKASDFSLEASVAEMKEYITKFSLERQTWDQLLLHYQQEAKEILSRGSTEAKITEVKVEPMTYLGSSQNEVLNTKPDYQKILQNQSKVFDCMELVMDELQGSVKQLQAFMDESTQCFQKVSVQLGKRSMQQLDPSPARKLLKLQLQNPPAIHGSGSGSCQ [DSN1]”, in the data set on HeLa Kyoto [1], the “solubility in G1/S (log2)” value is 0.0805. Besides, the “solubility change mitosis (log2)” value in the data set with HeLa Kyoto [2] was -0.12.
As for “MSLERELRQLSKAKAKAQRAGQRREEAALCHQLGELLAGHGRYAEALEQHWQELQLRERADDPLGCAVAHRKIGERLAEMEDYPAALQHQHQYLELAHSLRNHTELQRAWATIGRTHLDIYDHCQSRDALLQAQAAFEKSLAIVDEELEGTLAQGELNEMRTRLYLNLGLTFESLQQTALCNDYFRKSIFLAEQNHLYEDLFRARYNLGTIHWRAGQHSQAMRCLEGARECAHTMRKRFMESECCVVIAQVLQDLGDFLAAKRALKKAYRLGSQKPVQRAAICQNLQHVLAVVRLQQQLEEAEGRDPQGAMVICEQLGDLFSKAGDFPRAAEAYQKQLRFAELLDRPGAERAIIHVSLATTLGDMKDHHGAVRHYEEELRLRSGNVLEEAKTWLNIALSREEAGDAYELLAPCFQKALSCAQQAQRPQLQRQVLQHLHTVQLRLQPQEAPETETRLRELSVAEDEDEEEEAEEAAATAESEALEAGEVELSEGEDDTDGLTPQLEEDEELQGHLGRRKGSKWNRRNDMGETLLHRACIEGQLRRVQDLVRQGHPLNPRDYCGWTPLHEACNYGHLEIVRFLLDHGAAVDDPGGQGCEGITPLHDALNCGHFEVAELLLERGASVTLRTRKGLSPLETLQQWVKLYRRDLDLETRQKARAMEMLLQAAASGQDPHSSQAFHTPSSLLFDPETSPPLSPCPEPPSNSTRLPEASQAHVRVSPGQAAPAMARPRRSRHGPASSSSSSEGEDSAGPARPSQKRPRCSATAQRVAAWTPGPASNREAATASTSRAAYQAAIRGVGSAQSRLGPGPPRGHSKALAPQAALIPEEECLAGDWLELDMPLTRSRRPRPRGTGDNRRPSSTSGSDSEESRPRARAKQVRLTCMQSCSAPVNAGPSSLASEPPGSPSTPRVSEPSGDSSAAGQPLGPAPPPPIRVRVQVQDHLFLIPVPHSSDTHSVAWLAEQAAQRYYQTCGLLPRLTLRKEGALLAPQDLIPDVLQSNDEVLAEVTSWDLPPLTDRYRRACQSLGQGEHQQVLQAVELQGLGLSFSACSLALDQAQLTPLLRALKLHTALRELRLAGNRLGDKCVAELVAALGTMPSLALLDLSSNHLGPEGLRQLAMGLPGQATLQSLEELDLSMNPLGDGCGQSLASLLHACPLLSTLRLQACGFGPSFFLSHQTALGSAFQDAEHLKTLSLSYNALGAPALARTLQSLPAGTLLHLELSSVAAGKGDSDLMEPVFRYLAKEGCALAHLTLSANHLGDKAVRDLCRCLSLCPSLISLDLSANPEISCASLEELLSTLQKRPQGLSFLGLSGCAVQGPLGLGLWDKIAAQLRELQLCSRRLCAEDRDALRQLQPSRPGPGECTLDHGSKLFFRRL [TONSL]”, in the data set on HeLa Kyoto [1], the “solubility in G1/S (log2)” value was -0.116. Moreover, the “solubility change mitosis (log2)” value in the data set with HeLa Kyoto [2] was 0.119.
As for “MSKGRAEAAAGAAGILLRYLQEQNRPYSSQDVFGNLQREHGLGKAVVVKTLEQLAQQGKIKEKMYGKQKIYFADQDQFDMVSDADLQVLDGKIVALTAKVQSLQQSCRYMEAELKELSSALTTPEMQKEIQELKKECAGYRERLKNIKAATNHVTPEEKEQVYRERQKYCKEWRKRKRMATELSDAILEGYPKSKKQFFEEVGIETDEDYNVTLPDP [PSMC3IP]”, the “solubility in G1/S (log2)” value in the data set with HeLa Kyoto [1] came to 0.125. For the same substance, the “solubility change mitosis (log2)” value in the data set with HeLa Kyoto [2] is 0.072.
For “MAAAAAETPEVLRECGCKGIRTCLICERQRGSDPPWELPPAKTYRFIYCSDTGWAVGTEESDFEGWAFPFPGVMLIEDFVTREEEAELVRLMDRDPWKLSQSGRRKQDYGPKVNFRKQKLKTEGFCGLPSFSREVVRRMGLYPGLEGFRPVEQCNLDYCPERGSAIDPHLDDAWLWGERLVSLNLLSPTVLSMCREAPGSLLLCSAPSAAPEALVDSVIAPSRSVLCQEVEVAIPLPARSLLVLTGAARHQWKHAIHRRHIEARRVCVTFRELSAEFGPGGRQQELGQELLRIALSFQGRPV [ALKBH4]” the same measures were 0.184 and -0.0312.
The matching figures for “MPVHSRGDKKETNHHDEMEVDYAENEGSSSEDEDTESSSVSEDGDSSEMDDEDCERRRMECLDEMSNLEKQFTDLKDQLYKERLSQVDAKLQEVIAGKAPEYLEPLATLQENMQIRTKVAGIYRELCLESVKNKYECEIQASRQHCESEKLLLYDTVQSELEEKIRRLEEDRHSIDITSELWNDELQSRKKRKDPFSPDKKKPVVVSGPYIVYMLQDLDILEDWTTIRKAMATLGPHRVKTEPPVKLEKHLHSARSEEGRLYYDGEWYIRGQTICIDKKDECPTSAVITTINHDEVWFKRPDGSKSKLYISQLQKGKYSIKHS [BRMS1L]”: -0.0165 and -0.0561.
As to “MKMEEAVGKVEELIESEAPPKASEQETAKEEDGSVELESQVQKDGVADSTVISSMPCLLMELRRDSSESQLASTESDKPTTGRVYESDSSNHCMLSPSSSGHLADSDTLSSAEENEPSQAETAVEGDPSGVSGATVGRKSRRSRSESETSTMAAKKNRQSSDKQNGRVAKVKGHRSQKHKERIRLLRQKREAAARKKYNLLQDSSTSDSDLTCDSSTSSSDDDEEVSGSSKTITAEIPDGPPVVAHYDMSDTNSDPEVVNVDNLLAAAVVQEHSNSVGGQDTGATWRTSGLLEELNAEAGHLDPGFLASDKTSAGNAPLNEEINIASSDSEVEIVGVQEHARCVHPRGGVIQSVSSWKHGSGTQYVSTRQTQSWTAVTPQQTWASPAEVVDLTLDEDSRRKYLL [C18ORF25]”, in the data set with HeLa Kyoto [1], the “solubility in G1/S (log2)” value is -0.0209. For the same substance, the “solubility change mitosis (log2)” value in the data set with HeLa Kyoto [2] is -0.243.
Regarding “MARRSQSSSQGDNPLAPGYLPPHYKEYYRLAVDALAEGGSEAYSRFLATEGAPDFLCPEELEHVSRHLRPPQYVTREPPEGSLLDVDMDGSSGTYWPVNSDQAVPELDLGWPLTFGFQGTEVTTLVQPPPPDSPSIKDEARRMIRSAQQVVAVVMDMFTDVDLLSEVLEAAARRVPVYILLDEMNAQHFLDMADKCRVNLQHVDFLRVRTVAGPTYYCRTGKSFKGHVKEKFLLVDCAVVMSGSYSFMWSFEKIHRSLAHVFQGELVSSFDEEFRILFAQSEPLVPSAAALARMDAYALAPYAGAGPLVGVPGVGAPTPFSFPKRAHLLFPPPREEGLGFPSFLDPDRHFLSAFRREEPPRMPGGALEPHAGLRPLSRRLEAEAGPAGELAGARGFFQARHLEMDAFKRHSFATEGAGAVENFAAARQVSRQTFLSHGDDFRFQTSHFHRDQLYQQQYQWDPQLTPARPQGLFEKLRGGRAGFADPDDFTLGAGPRFPELGPDGHQRLDYVPSSASREVRHGSDPAFAPGPRGLEPSGAPRPNLTQRFPCQAAARPGPDPAPEAEPERRGGPEGRAGLRRWRLASYLSGCHGEDGGDDGLPAPMEAEAYEDDVLAPGGRAPAGDLLPSAFRVPAAFPTKVPVPGPGSGGNGPEREGPEEPGLAKQDSFRSRLNPLVQRSSRLRSSLIFSTSQAEGAAGAAAATEKVQLLHKEQTVSETLGPGGEAVRSAASTKVAELLEKYKGPARDPGGGAGAITVASHSKAVVSQAWREEVAAPGAVGGERRSLESCLLDLRDSFAQQLHQEAERQPGAASLTAAQLLDTLGRSGSDRLPSRFLSAQSHSTSPQGLDSPLPLEGSGAHQVLHNESKGSPTSAYPERKGSPTPGFSTRRGSPTTGFIEQKGSPTSAYPERRGSPVPPVPERRSSPVPPVPERRGSLTLTISGESPKAGPAEEGPSGPMEVLRKGSLRLRQLLSPKGERRMEDEGGFPVPQENGQPESPRRLSLGQGDSTEAATEERGPRARLSSATANALYSSNLRDDTKAILEQISAHGQKHRAVPAPSPGPTHNSPELGRPPAAGVLAPDMSDKDKCSAIFRSDSLGTQGRLSRTLPASAEERDRLLRRMESMRKEKRVYSRFEVFCKKEEASSPGAGEGPAEEGTRDSKVGKFVPKILGTFKSKK [FAM83H]”, the “solubility in G1/S (log2)” value in the data set on HeLa Kyoto [1] was -0.733. Moreover, the “solubility change mitosis (log2)” value in the data set on HeLa Kyoto [2] is -0.0789.
In the case of “MSHGPKQPGAAAAPAGGKAPGQHGGFVVTVKQERGEGPRAGEKGSHEEEPVKKRGWPKGKKRKKILPNGPKAPVTGYVRFLNERREQIRTRHPDLPFPEITKMLGAEWSKLQPTEKQRYLDEAEREKQQYMKELRAYQQSEAYKMCTEKIQEKKIKKEDSSSGLMNTLLNGHKGGDCDGFSTFDVPIFTEEFLDQNKAREAELRRLRKMNVAFEEQNAVLQRHTQSMSSARERLEQELALEERRTLALQQQLQAVRQALTASFASLPVPGTGETPTLGTLDFYMARLHGAIERDPAQHEKLIVRIKEILAQVASEHL [HMG20B]”, the “solubility in G1/S (log2)” value in the data set with HeLa Kyoto [1] is 0.616. The “solubility change mitosis (log2)” value with HeLa Kyoto [2] was -0.0403.
As to “MAVAVGRPSNEELRNLSLSGHVGFDSLPDQLVNKSTSQGFCFNILCVGETGIGKSTLMDTLFNTKFESDPATHNEPGVRLKARSYELQESNVRLKLTIVDTVGFGDQINKDDSYKPIVEYIDAQFEAYLQEELKIKRSLFNYHDTRIHACLYFIAPTGHSLKSLDLVTMKKLDSKVNIIPIIAKADTIAKNELHKFKSKIMSELVSNGVQIYQFPTDEETVAEINATMSVHLPFAVVGSTEEVKIGNKMAKARQYPWGVVQVENENHCDFVKLREMLIRVNMEDLREQTHTRHYELYRRCKLEEMGFKDTDPDSKPFSLQETYEAKRNEFLGELQKKEEEMRQMFVMRVKEKEAELKEAEKELHEKFDLLKRTHQEEKKKVEDKKKELEEEVNNFQKKKAAAQLLQSQAQQSGAQQTKKDKDKKNASFT [SEPT11]”, the “solubility in G1/S (log2)” value with HeLa Kyoto [1] was -0.0512. Moreover, the “solubility change mitosis (log2)” value in the data set on HeLa Kyoto [2] is 0.12.

The record behind these values is the supplement of paper PMC5998384.
